Experimental data published in article PMC9482650, “Quantitative fragmentomics allow affinity mapping of interactomes” (Nature Communications, 2022).

T1: SHROOM3, Q8TF72
T1 sequence (Q8TF72 20-120, limits assumed, looked up): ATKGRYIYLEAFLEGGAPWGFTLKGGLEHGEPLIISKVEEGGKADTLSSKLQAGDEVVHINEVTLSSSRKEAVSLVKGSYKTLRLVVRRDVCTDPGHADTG

T2: GRIP1_1, Q9Y3R0
T2 sequence (Q9Y3R0 48-146, limits assumed, looked up): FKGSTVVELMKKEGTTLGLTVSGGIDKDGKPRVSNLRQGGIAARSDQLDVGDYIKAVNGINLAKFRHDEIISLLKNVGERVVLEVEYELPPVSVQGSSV

T3: USH1C_2, Q9Y6N9
T3 sequence (Q9Y6N9 206-303, limits assumed, looked up): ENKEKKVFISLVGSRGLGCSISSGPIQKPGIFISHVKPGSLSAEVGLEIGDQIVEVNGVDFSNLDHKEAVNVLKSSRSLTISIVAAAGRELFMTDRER

T4: SHANK3, Q9BYB0
T4 sequence (Q9BYB0 641-750, limits assumed, looked up): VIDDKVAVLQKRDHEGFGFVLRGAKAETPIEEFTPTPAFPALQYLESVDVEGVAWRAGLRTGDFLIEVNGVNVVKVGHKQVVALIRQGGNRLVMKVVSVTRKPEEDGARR

T5: USH1C_3, Q9Y6N9
T5 sequence (Q9Y6N9 447-547, limits assumed, looked up): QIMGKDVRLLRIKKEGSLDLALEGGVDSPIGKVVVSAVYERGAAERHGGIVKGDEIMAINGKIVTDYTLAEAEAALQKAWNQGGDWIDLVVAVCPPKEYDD

T6: MPDZ_13, O75970
T6 sequence (O75970 1982-2070, limits assumed, looked up): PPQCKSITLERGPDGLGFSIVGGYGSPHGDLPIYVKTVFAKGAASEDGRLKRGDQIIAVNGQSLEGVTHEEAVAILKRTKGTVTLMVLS

T7: GIPC1, O14908
T7 sequence (O14908 128-223, limits assumed, looked up): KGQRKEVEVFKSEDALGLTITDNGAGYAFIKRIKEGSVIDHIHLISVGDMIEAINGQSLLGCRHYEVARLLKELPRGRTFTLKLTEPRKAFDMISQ

T8: PTPN4, P29074
T8 sequence (P29074 512-599, limits assumed, looked up): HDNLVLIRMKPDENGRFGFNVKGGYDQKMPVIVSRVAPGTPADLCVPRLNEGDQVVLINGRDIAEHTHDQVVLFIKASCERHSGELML

T9: PDZD2_5, O15018
T9 sequence (O15018 2617-2716, limits assumed, looked up): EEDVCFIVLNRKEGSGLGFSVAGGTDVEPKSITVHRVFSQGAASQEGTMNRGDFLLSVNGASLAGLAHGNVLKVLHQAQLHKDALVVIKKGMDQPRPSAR

T10: MAGI2_1, Q86UL8
T10 sequence (Q86UL8 12-111, limits assumed, looked up): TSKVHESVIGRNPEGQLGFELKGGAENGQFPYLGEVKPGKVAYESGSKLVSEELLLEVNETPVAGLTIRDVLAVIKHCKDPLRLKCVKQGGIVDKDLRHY

T11: PTPN13_5, Q12923
T11 sequence (Q12923 1877-1975, limits assumed, looked up): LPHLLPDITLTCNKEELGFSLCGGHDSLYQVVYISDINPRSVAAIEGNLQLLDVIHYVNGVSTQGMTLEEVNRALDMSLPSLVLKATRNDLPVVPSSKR

T12: INTU, Q9ULD6
T12 sequence (Q9ULD6 180-273, limits assumed, looked up): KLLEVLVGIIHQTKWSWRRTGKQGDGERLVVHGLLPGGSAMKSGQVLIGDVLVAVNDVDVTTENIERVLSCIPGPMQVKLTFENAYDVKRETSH


Tests used:
Assay in all cases: holdup assay
Design in all cases: key: below the threshold = too weak to quantify, mostly under pKd 3.1 to 4
Settings in all cases: plain residues with an end cap or a label only (N-terminal biotin on a linker: ttds)
SHROOM3, Q8TF72 = biological target: T1, SHROOM3, Q8TF72
PDZD9, Q8IXQ8 = biological target: PDZD9, Q8IXQ8
Chain of PDZD9, Q8IXQ8 (Q8IXQ8 23-120): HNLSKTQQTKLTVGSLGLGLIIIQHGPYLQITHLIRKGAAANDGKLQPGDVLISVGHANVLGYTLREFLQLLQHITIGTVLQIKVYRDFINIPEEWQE

GRIP1_1, Q9Y3R0 = biological target: T2, GRIP1_1, Q9Y3R0
MAST3, O60307 = biological target: MAST3, O60307
Chain of MAST3, O60307 (O60307 945-1048): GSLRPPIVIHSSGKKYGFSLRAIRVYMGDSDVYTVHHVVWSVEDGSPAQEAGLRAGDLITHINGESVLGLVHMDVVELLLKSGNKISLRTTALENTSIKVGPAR

USH1C_2, Q9Y6N9 = biological target: T3, USH1C_2, Q9Y6N9
PREX1_1, Q8TCU6 = biological target: PREX1_1, Q8TCU6
Chain of PREX1_1, Q8TCU6 (Q8TCU6 608-718): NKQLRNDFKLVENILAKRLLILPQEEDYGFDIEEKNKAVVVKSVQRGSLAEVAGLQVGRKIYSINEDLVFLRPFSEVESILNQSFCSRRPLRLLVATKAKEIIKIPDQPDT

SHANK3, Q9BYB0 = biological target: T4, SHANK3, Q9BYB0
USH1C_3, Q9Y6N9 = biological target: T5, USH1C_3, Q9Y6N9
MAGI1_6, Q96QZ7 = biological target: MAGI1_6, Q96QZ7
Chain of MAGI1_6, Q96QZ7 (Q96QZ7 1146-1238): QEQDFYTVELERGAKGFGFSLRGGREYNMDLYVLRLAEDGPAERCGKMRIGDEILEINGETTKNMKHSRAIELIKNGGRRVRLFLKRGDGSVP

TJP1_1, Q07157 = biological target: TJP1_1, Q07157
Chain of TJP1_1, Q07157 (Q07157 18-120): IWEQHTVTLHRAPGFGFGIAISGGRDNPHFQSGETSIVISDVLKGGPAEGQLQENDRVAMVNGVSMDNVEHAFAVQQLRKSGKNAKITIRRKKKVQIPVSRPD

MAGI3_4, Q5TCQ9 = biological target: MAGI3_4, Q5TCQ9
Chain of MAGI3_4, Q5TCQ9 (Q5TCQ9 716-815): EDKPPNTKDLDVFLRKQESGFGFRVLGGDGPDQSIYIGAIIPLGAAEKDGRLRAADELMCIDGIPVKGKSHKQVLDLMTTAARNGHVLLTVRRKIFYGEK

MAGI3_6, Q5TCQ9 = biological target: MAGI3_6, Q5TCQ9
Chain of MAGI3_6, Q5TCQ9 (Q5TCQ9 1014-1103): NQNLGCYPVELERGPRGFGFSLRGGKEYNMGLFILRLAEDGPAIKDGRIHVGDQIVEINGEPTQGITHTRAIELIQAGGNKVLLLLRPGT

PDLIM4, P50479 = biological target: PDLIM4, P50479
Chain of PDLIM4, P50479 (P50479 1-83): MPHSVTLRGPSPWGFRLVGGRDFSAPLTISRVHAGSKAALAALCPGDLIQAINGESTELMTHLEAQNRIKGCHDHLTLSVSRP

MPDZ_13, O75970 = biological target: T6, MPDZ_13, O75970
GIPC1, O14908 = biological target: T7, GIPC1, O14908
MAGIX, Q9H6Y5 = biological target: MAGIX, Q9H6Y5
Chain of MAGIX, Q9H6Y5 (Q9H6Y5 118-211): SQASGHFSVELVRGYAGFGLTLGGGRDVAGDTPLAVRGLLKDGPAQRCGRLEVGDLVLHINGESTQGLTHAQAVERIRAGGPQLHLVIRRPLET

PTPN4, P29074 = biological target: T8, PTPN4, P29074
PDZD2_5, O15018 = biological target: T9, PDZD2_5, O15018
PARD3_1, Q8TEW0 = biological target: PARD3_1, Q8TEW0
Chain of PARD3_1, Q8TEW0 (Q8TEW0 264-372): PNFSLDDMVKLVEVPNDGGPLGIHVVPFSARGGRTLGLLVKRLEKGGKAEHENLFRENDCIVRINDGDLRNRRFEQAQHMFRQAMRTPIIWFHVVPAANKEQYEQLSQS

MAGI1_4, Q96QZ7 = biological target: MAGI1_4, Q96QZ7
Chain of MAGI1_4, Q96QZ7 (Q96QZ7 other isoform, or with tags, fused parts or gaps): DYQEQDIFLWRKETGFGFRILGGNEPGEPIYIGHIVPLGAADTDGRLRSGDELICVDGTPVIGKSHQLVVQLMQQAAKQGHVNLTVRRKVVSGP

PARD3B_3, Q8TEW8 = biological target: PARD3B_3, Q8TEW8
Chain of PARD3B_3, Q8TEW8 (Q8TEW8 490-594): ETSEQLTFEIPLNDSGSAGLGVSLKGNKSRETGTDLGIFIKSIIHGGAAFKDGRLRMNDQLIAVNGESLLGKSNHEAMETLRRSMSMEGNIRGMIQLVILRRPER

MAGI2_1, Q86UL8 = biological target: T10, MAGI2_1, Q86UL8
PTPN13_5, Q12923 = biological target: T11, PTPN13_5, Q12923
CNKSR3, Q6P9H4 = biological target: CNKSR3, Q6P9H4
Chain of CNKSR3, Q6P9H4 (Q6P9H4 203-303): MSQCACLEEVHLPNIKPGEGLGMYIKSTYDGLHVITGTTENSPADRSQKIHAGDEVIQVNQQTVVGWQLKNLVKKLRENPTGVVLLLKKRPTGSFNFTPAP

GIPC3, Q8TF64 = biological target: GIPC3, Q8TF64
Chain of GIPC3, Q8TF64 (Q8TF64 107-202): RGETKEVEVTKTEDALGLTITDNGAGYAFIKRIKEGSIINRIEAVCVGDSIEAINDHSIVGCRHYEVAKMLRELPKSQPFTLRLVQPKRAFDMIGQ

INTU, Q9ULD6 = biological target: T12, INTU, Q9ULD6

Row | Binder | pKd (SHROOM3, Q8TF72) | pKd (PDZD9, Q8IXQ8) | pKd (GRIP1_1, Q9Y3R0) | pKd (MAST3, O60307) | pKd (USH1C_2, Q9Y6N9) | pKd (PREX1_1, Q8TCU6) | pKd (SHANK3, Q9BYB0) | pKd (MAGI1_6, Q96QZ7) | pKd (TJP1_1, Q07157) | pKd (MAGI3_4, Q5TCQ9) | pKd (MAGI3_6, Q5TCQ9) | pKd (PDLIM4, P50479) | pKd (MPDZ_13, O75970) | pKd (GIPC1, O14908) | pKd (MAGIX, Q9H6Y5) | pKd (PTPN4, P29074) | pKd (PDZD2_5, O15018) | pKd (PARD3_1, Q8TEW0) | pKd (MAGI1_4, Q96QZ7) | pKd (PARD3B_3, Q8TEW8) | also measured
1 | RSLEEEESQL [GRASP, Q7Z6J2] | below the threshold | below the threshold | below the threshold | below the threshold | below the threshold | 4.08 | 5.24 | below the threshold | below the threshold | below the threshold | 4.14 | below the threshold | below the threshold | 4.1 | below the threshold | below the threshold | 4.22 | below the threshold | below the threshold | below the threshold | pKd (USH1C_3, Q9Y6N9): below the threshold; pKd (MAGI2_1, Q86UL8): below the threshold; pKd (PTPN13_5, Q12923): below the threshold; pKd (CNKSR3, Q6P9H4): 4.6; pKd (GIPC3, Q8TF64): below the threshold
2 | SSRTRRETQL [HPV16-E6, P03126] | below the threshold | 4.06 | below the threshold | below the threshold | 3.92 | below the threshold | below the threshold | below the threshold | 4.22 | below the threshold | below the threshold | below the threshold | below the threshold | 4.13 | below the threshold | 4.61 | below the threshold | below the threshold | below the threshold | below the threshold | pKd (INTU, Q9ULD6): below the threshold; pKd (USH1C_3, Q9Y6N9): below the threshold; pKd (MAGI2_1, Q86UL8): below the threshold; pKd (PTPN13_5, Q12923): below the threshold; pKd (CNKSR3, Q6P9H4): below the threshold; pKd (GIPC3, Q8TF64): below the threshold
3 | SVWLRKETRV [CYSLTR2, Q9NS75] | below the threshold | below the threshold | below the threshold | below the threshold | below the threshold | below the threshold | below the threshold | below the threshold | 4.78 | below the threshold | below the threshold | below the threshold | below the threshold | below the threshold | below the threshold | 4.52 | below the threshold | below the threshold | below the threshold | below the threshold | pKd (INTU, Q9ULD6): below the threshold; pKd (USH1C_3, Q9Y6N9): below the threshold; pKd (MAGI2_1, Q86UL8): below the threshold; pKd (PTPN13_5, Q12923): below the threshold; pKd (CNKSR3, Q6P9H4): below the threshold; pKd (GIPC3, Q8TF64): below the threshold
4 | SRPQRTQTQV [HPV67-E6, A4U7F2] | below the threshold | below the threshold | below the threshold | below the threshold | below the threshold | below the threshold | below the threshold | below the threshold | below the threshold | below the threshold | below the threshold | below the threshold | below the threshold | below the threshold | below the threshold | below the threshold | below the threshold | below the threshold | below the threshold | below the threshold | pKd (INTU, Q9ULD6): below the threshold; pKd (MAGI2_1, Q86UL8): below the threshold; pKd (PTPN13_5, Q12923): below the threshold; pKd (CNKSR3, Q6P9H4): below the threshold; pKd (GIPC3, Q8TF64): below the threshold
